From article PMC8072677

Molecular target: CCR7-EGFP (human CCR7 fused to EGFP) (human) (UniProt P32248)
Sequence of UniProt P32248 (P32248 25-378): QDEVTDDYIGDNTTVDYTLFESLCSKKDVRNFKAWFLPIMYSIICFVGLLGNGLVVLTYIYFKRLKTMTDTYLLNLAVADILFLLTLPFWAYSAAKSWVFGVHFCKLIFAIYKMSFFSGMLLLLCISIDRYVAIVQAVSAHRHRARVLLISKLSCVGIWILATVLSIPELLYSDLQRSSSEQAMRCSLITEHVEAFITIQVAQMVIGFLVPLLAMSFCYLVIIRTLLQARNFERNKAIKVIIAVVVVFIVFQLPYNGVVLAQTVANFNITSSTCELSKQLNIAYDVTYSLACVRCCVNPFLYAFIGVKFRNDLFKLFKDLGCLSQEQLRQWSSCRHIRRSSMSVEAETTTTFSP

## CCL19 (recombinant untagged, native mature human CCL19) (from UniProt Q99731 22-98) (ligand)
  Transwell migration of 300-19 pre-B cells stably expressing CCR7 towards graded concentrations of chemokine, 3 h; concentration of maximal migration: 50 nM
